B1: GST fusion of the LC (low complexity) domain of SNX9 (other, UniProt Q9Y5X1 63-203, looked up)
chain: DGKDQFSCGNSVADQAFLDSLSASTAQASSSAASNNHQVGSGNDPWSAWSASKSGNWESSEGWGAQPEGAGAQRNTNTPNNWDTAFGHPQAYQGPATGDDDDWDEDWDGPKSSSYFKDSESADAGGAQRGNSRASSSSMKI
notes: domain: LC domain; It overlaps the 1-74 fragment; also called LC domain; not shown: glutathione S-transferase (GST) tag
B2: GST fusion of the amino half of SNX9 (SH3 and low complexity (LC) domains) (other, UniProt Q9Y5X1 1-203, looked up)
chain: MATKARVMYDFAAEPGNNELTVNEGEIITITNPDVGGGWLEGRNIKGERGLVPTDYVEILPSDGKDQFSCGNSVADQAFLDSLSASTAQASSSAASNNHQVGSGNDPWSAWSASKSGNWESSEGWGAQPEGAGAQRNTNTPNNWDTAFGHPQAYQGPATGDDDDWDEDWDGPKSSSYFKDSESADAGGAQRGNSRASSSSMKI
notes: domain: SH3 and low complexity (LC) domains; also called amino terminal peptide; not shown: glutathione S-transferase (GST) tag
B3: GST fusion of the first 74 amino acids of SNX9 encoding the SH3 domain (other, UniProt Q9Y5X1 1-74, looked up)
chain: MATKARVMYDFAAEPGNNELTVNEGEIITITNPDVGGGWLEGRNIKGERGLVPTDYVEILPSDGKDQFSCGNSV
notes: range 1-74; also called SH3 domain of sorting nexin 9; SNX9 SH3 domain; not shown: glutathione S-transferase (GST) tag
B4: phosphorylated Smad2 (pSmad2) (other, UniProt Q62432 2-467, looked up)
chain: SSILPFTPPVVKRLLGWKKSAGGSGGAGGGEQNGQEEKWCEKAVKSLVKKLKKTGRLDELEKAITTQNCNTKCVTIPSTCSEIWGLSTANTVDQWDTTGLYSFSEQTRSLDGRLQVSHRKGLPHVIYCRLWRWPDLHSHHELKAIENCEYAFNLKKDEVCVNPYHYQRVETPVLPPVLVPRHTEILTELPPLDDYTHSIPENTNFPAGIEPQSNYIPETPPPGYISEDGETSDQQLNQSMDTGSPAELSPTTLSPVNHSLDLQPVTYSEPAFWCSIAYYELNQRVGETFHASQPSLTVDGFTDPSNSERFCLGLLSNVNRNATVEMTRRHIGRGVRLYYIGGEVFAECLSDSAIFVQSPNCNQRYGWHPATVCKIPPGCNLKIFNNQEFAALLAQSVNQGFEAVYQLTRMCTIRMSFVKGWGAEYRRQTVTSTPCWIELHLNGPLQWLDKVLTQMGSPSVRCSSMS
modifications: phosphorylated (sites not given)
notes: Endogenous protein from AKR-2B cell lysate, detected by Western blot with a phospho-Smad2 specific antibody
B5: TAT-SH3-2M (TAT-SH3-2 with G to V mutations at amino acids 36-38) (designed binder)
chain: TVNEGEIITITNPDVVVVWLEGRNIKGERGL
notes: range 21-51; Mutant of TAT-SH3-2; also called Control peptide; not shown: His tag, cell penetrating TAT polypeptide from HIV and HA tag
B6: GST fusion of the carboxyl half of SNX9 (Phox and BAR domains) (other, UniProt Q9Y5X1 204-595, looked up)
chain: PLNKFPGFAKPGTEQYLLAKQLAKPKEKIPIIVGDYGPMWVYPTSTFDCVVADPRKGSKMYGLKSYIEYQLTPTNTNRSVNHRYKHFDWLYERLLVKFGSAIPIPSLPDKQVTGRFEEEFIKMRMERLQAWMTRMCRHPVISESEVFQQFLNFRDEKEWKTGKRKAERDELAGVMIFSTMEPEAPDLDLVEIEQKCEAVGKFTKAMDDGVKELLTVGQEHWKRCTGPLPKEYQKIGKALQSLATVFSSSGYQGETDLNDAITEAGKTYEEIASLVAEQPKKDLHFLMECNHEYKGFLGCFPDIIGTHKGAIEKVKESDKLVATSKITLQDKQNMVKRVSIMSYALQAEMNHFHSNRIYDYNSVIRLYLEQQVQFYETIAEKLRQALSRFPVM
notes: domain: Phox and BAR domains; not shown: glutathione S-transferase (GST) tag

Assay [1] deals with B4. Nature of the assay: GST pull-down from AKR-2B lysate, Western blot. (In western blotting, separated proteins are transferred to a membrane and probed.)
Experimental: (§1) Lysates from AKR-2B cells untreated (−) or stimulated (+) for 45 minutes with 5 ng/mL TGFβ were incubated with GST beads or the indicated fusion polypeptides immobilized on GST beads. Bound polypeptides were eluted and assessed by Western analysis for pSmad3 or pSmad2. Cell lysate reflects signal obtained from 10 μg total protein. (B) AKR-2B cells were transduced for 90 minutes with the indicated concentrations of the TAT-SNX9(SH3) fusion polypeptides. Following washing and 1 hour TGFβ (5 ng/mL) treatment, nuclear fractions were isolated, and Western blotted for pSmad2, pSmad3, or histone deacetylase 1 (HDAC) (Left). Quantitation of nuclear pSmads was performed with Image J software and represents the mean+/−sd of two experiments (Right). […] Immunofluorescence for Smad3 or the HA-tagged TAT-SNX9(SH3) fusion polypeptide was performed, and nuclei were stained with DAPI (Left panels). Quantitation of nuclear Smad3 from 30 cells in each of two experiments (Right).
(§2) To assess SNX9 binding to GST or His constructs, cells were incubated in the presence or absence of 5 ng/mL TGFβ for 45 minutes. Following RIPA buffer lysis, 500 μg of protein was precleared with GST Resin or TALON Metal Affinity Resin for 2 hours at 4° C. Precleared cell lysates were then treated with 5 μg purified GST- or His-fusion proteins and incubated overnight at 4° C. with gentle shaking. Following addition of GST or TALON Metal Affinity Resin and 2 hours of incubation, the pelleted (3,000×g; 10 minutes) resin was washed several times with PBS, and the remaining proteins were eluted using 1× Laemmli sample buffer. Western blotting was performed as described above.
In assay [2] the target is T1, GST full length (FL) SNX9 (UniProt Q9Y5X1 1-595).
T1 construct: GST fusion used in pull-down; also called GST-FL SNX9; not shown: glutathione S-transferase (GST) tag
Nature of the assay: GST pull-down from AKR-2B lysate, Western blot.

Assay [3] deals with T2, phosphorylated Smad3 (pSmad3) (UniProt Q8BUN5 2-425, phosphorylated (sites not given)).
T2 construct: Endogenous protein from AKR-2B cell lysate, detected by Western blot with a phospho-Smad3 specific antibody; also called phosphorylated (p) Smad3
Nature of the assay: His pull-down from AKR-2B lysate, Western blot.

Assay [4] concerns the target T2, phosphorylated Smad3 (pSmad3). Nature of the assay: GST pull-down from AKR-2B lysate, Western blot.
Experimental: as §1, §2

The values below come from US20170253873A1 (MAYO FOUNDATION FOR MEDICAL EDUCATION AND RESEARCH, published 2017).

T2 sequence (Q8BUN5 2-425 limits assumed): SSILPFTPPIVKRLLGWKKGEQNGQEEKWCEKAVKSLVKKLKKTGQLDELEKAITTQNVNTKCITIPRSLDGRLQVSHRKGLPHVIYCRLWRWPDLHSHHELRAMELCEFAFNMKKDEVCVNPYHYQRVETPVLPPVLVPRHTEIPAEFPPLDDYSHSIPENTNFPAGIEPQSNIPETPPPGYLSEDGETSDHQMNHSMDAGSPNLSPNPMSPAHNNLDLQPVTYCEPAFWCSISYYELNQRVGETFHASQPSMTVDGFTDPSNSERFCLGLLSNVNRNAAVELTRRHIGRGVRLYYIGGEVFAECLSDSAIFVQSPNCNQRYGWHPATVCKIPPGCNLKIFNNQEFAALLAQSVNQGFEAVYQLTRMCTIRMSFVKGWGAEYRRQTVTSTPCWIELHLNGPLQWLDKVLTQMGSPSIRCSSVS

On to B1, for which the binding result in assay [1] is “no binding”.

Consider B2, for which, in assay [1], the binding result was “no binding”.

Turning to B3, the binding result in assay [1] was “no binding”.

In the case of B4, the binding result in assay [2] was “no binding”.

In the case of B5, the binding result in assay [3] is recorded as “no binding”.

For the molecule B6, the binding result in assay [4] and in assay [1] was “no binding” in each case.
